Earlier results in article PMC3078936.

Biological target: Bmf (Homo sapiens)
Conditions: cited from earlier work

Sequence of DYNLL1 (P63167 whole entry): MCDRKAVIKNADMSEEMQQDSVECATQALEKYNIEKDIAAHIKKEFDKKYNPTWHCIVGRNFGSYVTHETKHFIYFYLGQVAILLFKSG

## DYNLL1 (from UniProt P63167)
  Kd: 750 nM
